Laboratory results: the supplement of paper PMC10567573

B1: C20orf112 (parent)
chain: YANGGLNYSYRGYGALSSNLQPPA

Variants of: B1
Test: protein stability index of a GFP-peptide fusion (GPS, HEK-293T) (PSI 1-6); higher = more stable
Conditions: c terminus: a fixed tail appended
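Further: lentivirally expressed fusions sorted by FACS into six bins by GFP to DsRed ratio, PSI derived from sequencing read proportions per bin multiplied by bin number.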

Protein stability index of substitutions, site by site:
G12: H 2.55 | C 2.85 | P 1.91 | T 2.23 | W 2.08 | V 3.16 | I 2.72 | N 1.93 | D 1.42 | E 1.63 | A 2.46 | Q 1.86 | S 1.91 | L 2.31 | R 1.08 | M 2.48 | Y 3 | F 1.67 | K 1.97
L6: K 1.57 | S 1.65 | R 2.1 | M 2.3 | Q 1.55 | A 2.03 | E 1.97 | Y 2.47 | N 1.47 | T 1.96 | V 1.85 | P 2.5 | W 2.27 | C 2.24 | I 2.33 | D 1.9 | H 1.97 | G 1.73 | F 2.08
N7: K 1.81 | H 3.47 | Y 2.53 | E 2.52 | F 3.66 | P 2.47 | L 3.75 | G 3.08 | C 2.1 | A 2.81 | R 1.52 | T 1.2 | M 2.76 | V 1.15 | Q 2.08 | S 2.38 | D 1.36 | I 2.27 | W 2.86
L16: N 2.61 | D 1.68 | W 2.68 | E 2.54 | A 2.11 | Q 2.02 | G 2.61 | Y 2.05 | P 2.57 | M 1.75 | H 2.48 | K 1.87 | R 2.3 | F 1.67 | I 2.43 | V 2.21 | T 1.76 | S 2.03 | C 1.64
S9: T 1.82 | V 2.6 | A 2.35 | E 1.43 | F 2.99 | D 1.97 | P 1.7 | G 1.88 | K 1.57 | N 1.89 | R 1.67 | M 2.77 | W 2.46 | Y 1.59 | C 1.7 | Q 1.46 | I 2.58 | H 1.82
S18: C 2.17 | P 2.2 | D 1.42 | M 2.06 | A 2.15 | K 1.61 | L 1.85 | I 1.78 | H 1.8 | G 1.58 | N 1.57 | F 1.72 | E 1.56
N3: F 2.04 | A 1.64 | S 1.99 | C 1.69 | T 1.65 | H 1.55 | G 1.98 | Y 1.8 | R 2.25 | I 2.11 | L 2.25 | D 2.56 | W 1.82 | E 1.6 | K 1.7 | Q 1.65 | V 2.08 | M 1.5 | P 2.35
Y10: N 1.89 | D 1.54 | H 2.15 | C 2.23 | G 1.5 | Q 1.77 | F 1.5 | A 1.9 | V 1.89 | S 2.48 | E 1.32 | T 2.25 | W 2.66 | P 1.92 | R 2.01 | L 2.3 | K 1.73 | I 1.99 | M 2.97
G14: R 2.7 | N 2.87 | P 2.54 | L 3.28 | I 3.6 | Y 2.91 | K 2.21 | D 1.54 | M 2.18 | Q 1.76 | V 2.4 | T 2.8 | E 2.45 | H 2.07 | S 2.32 | W 3.05 | F 2.52 | A 1.76 | C 3.39
Y1: G 3.16 | D 2.9 | F 1.86 | V 2.2 | C 1.96 | T 2.83 | L 2.67 | W 1.85 | K 2.96 | S 3.12 | A 3.08 | M 2.87 | I 2.45 | E 3.15 | Q 3.32 | N 3.08 | H 2.64 | R 2.97 | P 2.43
G5: F 1.98 | C 2.2 | R 1.98 | V 2.03 | T 1.91 | H 2.08 | I 2.21 | Q 1.93 | K 1.82 | L 1.9 | A 1.99 | P 2.02 | M 2.49 | D 2.08 | W 2.37 | N 1.72 | S 1.65 | E 2.4 | Y 1.86
G4: S 1.66 | W 1.99 | V 2.32 | M 1.48 | A 2.81 | R 1.38 | Q 2.06 | T 1.98 | E 2.01 | P 2.18 | D 2.05 | F 1.42 | C 1.91 | N 2.02 | L 2.01 | Y 2.38 | K 2.4 | H 1.6 | I 1.93
A2: V 2.49 | L 1.93 | I 2.1 | E 2.63 | R 2.22 | K 2.19 | G 1.95 | Q 1.4 | W 2.22 | N 2.3 | T 1.99 | M 1.68 | Y 2.63 | D 2.81 | S 1.54 | H 1.62 | F 2.07 | C 1.87
R11: A 1.72 | M 2.48 | K 2.09 | N 2.27 | I 1.98 | W 2.44 | H 1.69 | Q 2.32 | G 2.24 | L 2.31 | Y 2.21 | T 1.53 | S 2.19 | P 2.06 | C 3.49 | E 1.94 | V 2.09 | F 2.31 | D 1.82
Y13: W 2.96 | M 2.56 | K 2.12 | T 1.66 | A 1.93 | G 1.77 | F 2.5 | P 2.04 | V 1.73 | C 2.63 | S 1.96 | N 1.84 | I 2.29 | E 1.33 | L 2.87 | Q 2.13 | H 2.01 | D 1.82 | R 1.42
A15: M 1.49 | Q 1.77 | K 2.24 | V 1.85 | L 2.6 | Y 2.97 | D 2.07 | N 2.4 | G 1.87 | W 1.88 | C 2.32 | H 2.62 | T 2.75 | R 2.8 | I 2.42 | E 2.37 | S 2.22 | P 2.52 | F 2.68
Y8: D 1.95 | C 2.22 | L 1.94 | P 1.37 | A 1.76 | E 2.13 | G 2.19 | K 1.83 | R 2.04 | Q 1.64 | W 2.23 | F 1.73 | N 2.22 | T 1.84 | S 1.89 | M 1.95 | V 2.19 | H 1.85 | I 2.15
S17: W 1.85 | T 2.15 | M 2.17 | R 2.56 | L 1.39 | F 2.49 | I 3.55 | G 3.12 | P 1.9 | H 1.9 | V 2.33 | D 1.87 | C 2.2 | Q 1.55 | A 1.58 | E 2.23 | N 1.88 | Y 2.53 | K 1.94
